Measurements from article PMC2686405 (The Journal of Cell Biology, 2009).

Target: SNARE complex containing syntaxin-1A(2-253), synaptobrevin-2(29-93), SNAP-25(11-82) and SNAP-25(141-203) (rat | human, UniProt P32851;P63045;P60880)
Experiment: SEC

Chain of SNARE complex containing syntaxin-1A(2-253), synaptobrevin-2(29-93), SNAP-25(11-82) and SNAP-25(141-203) (P32851 2-253, chain 1 of 4): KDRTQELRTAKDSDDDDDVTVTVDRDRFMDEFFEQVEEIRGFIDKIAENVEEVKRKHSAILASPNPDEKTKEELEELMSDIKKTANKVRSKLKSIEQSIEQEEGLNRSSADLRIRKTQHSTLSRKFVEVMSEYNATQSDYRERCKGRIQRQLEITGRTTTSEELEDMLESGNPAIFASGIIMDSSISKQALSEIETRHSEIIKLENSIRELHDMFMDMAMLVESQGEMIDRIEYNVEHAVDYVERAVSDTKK
Chain of SNARE complex containing syntaxin-1A(2-253), synaptobrevin-2(29-93), SNAP-25(11-82) and SNAP-25(141-203) (P63045 29-93, chain 2 of 4): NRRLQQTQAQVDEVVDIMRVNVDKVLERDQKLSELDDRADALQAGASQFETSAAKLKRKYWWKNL
Chain of SNARE complex containing syntaxin-1A(2-253), synaptobrevin-2(29-93), SNAP-25(11-82) and SNAP-25(141-203) (P60880 11-82, chain 3 of 4): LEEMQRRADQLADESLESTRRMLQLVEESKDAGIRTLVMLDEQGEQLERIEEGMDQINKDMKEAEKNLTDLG
Chain of SNARE complex containing syntaxin-1A(2-253), synaptobrevin-2(29-93), SNAP-25(11-82) and SNAP-25(141-203) (P60880 141-203, chain 4 of 4): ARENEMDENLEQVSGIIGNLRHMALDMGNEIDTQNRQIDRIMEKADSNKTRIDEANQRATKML

B1: complexin-1(26-83) (domain or fragment)
chain: KDPDAAKKEEERQEALRQAEEERKAKYAKMEAEREVMRQGIRDKYGIKKKEEREAEAQ
  binding result: binds
